T1: TNFR1 (Homo sapiens, UniProt P19438)
T1 chain: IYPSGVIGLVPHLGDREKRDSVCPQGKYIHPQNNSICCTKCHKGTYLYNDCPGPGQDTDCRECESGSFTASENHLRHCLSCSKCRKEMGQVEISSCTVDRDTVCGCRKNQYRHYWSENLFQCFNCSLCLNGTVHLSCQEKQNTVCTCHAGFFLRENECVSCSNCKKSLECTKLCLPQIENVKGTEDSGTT


Biological target: T1, TNFR1
Test: yeast display SC50

| Binder | apparent Kd (screen) [nM] |
| --- | --- |
| V60S (designed binder) MTLQELLREEALRRAEAEAFRYALELLAEKFPEQKEYLLDLAEEIESQIRSLSGVDVEDSRKFLDKEWAWVKELLAEHPAELAEVEAARAARLAELRAEVEAKVAA | 0.446 |
| D40G (designed binder) MTLQELLREEALRRAEAEAFRYALELLAEKFPEQKEYLLGLAEEIESQIRSLSGVDVEDVRKFLDKEWAWVKELLAEHPAELAEVEAARAARLAELRAEVEAKVAA | 1.05 |
| R92I (designed binder) MTLQELLREEALRRAEAEAFRYALELLAEKFPEQKEYLLDLAEEIESQIRSLSGVDVEDVRKFLDKEWAWVKELLAEHPAELAEVEAARAAILAELRAEVEAKVAA | 0.49 |
| E25M (designed binder) MTLQELLREEALRRAEAEAFRYALMLLAEKFPEQKEYLLDLAEEIESQIRSLSGVDVEDVRKFLDKEWAWVKELLAEHPAELAEVEAARAARLAELRAEVEAKVAA | 0.368 |
| Q48H (designed binder) MTLQELLREEALRRAEAEAFRYALELLAEKFPEQKEYLLDLAEEIESHIRSLSGVDVEDVRKFLDKEWAWVKELLAEHPAELAEVEAARAARLAELRAEVEAKVAA | 0.653 |
| E86C (designed binder) MTLQELLREEALRRAEAEAFRYALELLAEKFPEQKEYLLDLAEEIESQIRSLSGVDVEDVRKFLDKEWAWVKELLAEHPAELAEVCAARAARLAELRAEVEAKVAA | 0.653 |
| E77M (designed binder) MTLQELLREEALRRAEAEAFRYALELLAEKFPEQKEYLLDLAEEIESQIRSLSGVDVEDVRKFLDKEWAWVKELLAMHPAELAEVEAARAARLAELRAEVEAKVAA | 0.593 |
| A98T (designed binder) MTLQELLREEALRRAEAEAFRYALELLAEKFPEQKEYLLDLAEEIESQIRSLSGVDVEDVRKFLDKEWAWVKELLAEHPAELAEVEAARAARLAELRTEVEAKVAA | 0.539 |
| E101S (designed binder) MTLQELLREEALRRAEAEAFRYALELLAEKFPEQKEYLLDLAEEIESQIRSLSGVDVEDVRKFLDKEWAWVKELLAEHPAELAEVEAARAARLAELRAEVSAKVAA | 0.956 |
| A80E (designed binder) MTLQELLREEALRRAEAEAFRYALELLAEKFPEQKEYLLDLAEEIESQIRSLSGVDVEDVRKFLDKEWAWVKELLAEHPEELAEVEAARAARLAELRAEVEAKVAA | 0.49 |
| E84Y (designed binder) MTLQELLREEALRRAEAEAFRYALELLAEKFPEQKEYLLDLAEEIESQIRSLSGVDVEDVRKFLDKEWAWVKELLAEHPAELAYVEAARAARLAELRAEVEAKVAA | 0.718 |
| E36M (designed binder) MTLQELLREEALRRAEAEAFRYALELLAEKFPEQKMYLLDLAEEIESQIRSLSGVDVEDVRKFLDKEWAWVKELLAEHPAELAEVEAARAARLAELRAEVEAKVAA | 0.49 |
| E33Q (designed binder) MTLQELLREEALRRAEAEAFRYALELLAEKFPQQKEYLLDLAEEIESQIRSLSGVDVEDVRKFLDKEWAWVKELLAEHPAELAEVEAARAARLAELRAEVEAKVAA | 0.49 |
| L52G (designed binder) MTLQELLREEALRRAEAEAFRYALELLAEKFPEQKEYLLDLAEEIESQIRSGSGVDVEDVRKFLDKEWAWVKELLAEHPAELAEVEAARAARLAELRAEVEAKVAA | 1.27 |

Reference: publication PMC12416549 (2024)
